From IntAct's records for PubMed 29039417

B1: BBSome complex member BBS5 (Homo sapiens), Q8N3I7 (parent)
chain: MSVLDALWEDRDVRFDLSAQQMKTRPGEVLIDCLDSIEDTKGNNGDRGRLLVTNLRILWHSLALSRVNVSVGYNCILNITTRTANSKLRGQTEALYILTKCNSTRFEFIFTNLVPGSPRLFTSVMAVHRAYETSKMYRDFKLRSALIQNKQLRLLPQEHVYDKINGVWNLSSDQGNLGTFFITNVRIVWHANMNDSFNVSIPYLQIRSIKIRDSKFGLALVIESSQQSGGYVLGFKIDPVEKLQESVKEINSLHKVYSASPIFGVDYEMEEKPQPLEALTVEQIQDDVEIDSDGHTDAFVAYFADGNKQQDREPVFSEELGLAIEKLKDGFTLQGLWEVMS
partner: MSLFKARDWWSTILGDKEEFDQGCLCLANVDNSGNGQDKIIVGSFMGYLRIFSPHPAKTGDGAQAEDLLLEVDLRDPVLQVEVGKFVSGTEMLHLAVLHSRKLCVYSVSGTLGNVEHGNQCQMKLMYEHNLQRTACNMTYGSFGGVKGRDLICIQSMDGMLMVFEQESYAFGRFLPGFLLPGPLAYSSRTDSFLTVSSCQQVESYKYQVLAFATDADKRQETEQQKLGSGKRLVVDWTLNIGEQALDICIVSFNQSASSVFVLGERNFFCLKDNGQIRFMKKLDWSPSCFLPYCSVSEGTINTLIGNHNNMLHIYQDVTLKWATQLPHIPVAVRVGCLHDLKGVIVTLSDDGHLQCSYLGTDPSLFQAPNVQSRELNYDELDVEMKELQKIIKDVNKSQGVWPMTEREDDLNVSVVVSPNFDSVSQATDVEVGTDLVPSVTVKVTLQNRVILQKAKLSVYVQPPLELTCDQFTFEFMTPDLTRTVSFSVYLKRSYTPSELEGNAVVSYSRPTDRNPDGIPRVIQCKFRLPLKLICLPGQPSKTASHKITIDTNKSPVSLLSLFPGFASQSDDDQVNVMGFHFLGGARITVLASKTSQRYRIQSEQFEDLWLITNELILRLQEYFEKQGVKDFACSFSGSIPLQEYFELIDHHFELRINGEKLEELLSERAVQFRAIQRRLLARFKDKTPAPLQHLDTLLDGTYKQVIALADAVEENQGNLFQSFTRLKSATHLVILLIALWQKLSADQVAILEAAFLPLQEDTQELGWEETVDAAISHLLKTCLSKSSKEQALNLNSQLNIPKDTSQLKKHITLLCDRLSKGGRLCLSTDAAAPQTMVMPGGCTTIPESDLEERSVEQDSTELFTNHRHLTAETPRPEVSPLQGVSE

Variants of: B1
Settings: with pthb1_human BBS9, Q3SYG4

Variant | effect of a mutation on the interaction
D173A | with no effect
D173K | with no effect
D173E | with no effect
A145E | with no effect
A145K | with no effect
A145T | disrupting interaction strength
N149E | with no effect
N149K | with no effect
N149A | with no effect
L154A | with no effect
L154E | with no effect
L154K | with no effect
R153K | with no effect
R153E | with no effect
R153A | with no effect
S134K | with no effect
S134E | with no effect
S134A | with no effect
F140E | with no effect
F140K | with no effect
F140A | with no effect
L170E | with no effect
L170A | with no effect

Variant | effect of a mutation on the interaction
L170K | with no effect
K141E | with no effect
K141A | with no effect
L146E | with no effect
L146A | with no effect
L146K | with no effect
K135A | with no effect
K135E | with no effect
N169A | with no effect
N169E | with no effect
N169K | with no effect
Q174K | with no effect
Q174A | with no effect
Q174E | with no effect
L155E | with no effect
L155A | with no effect
L155K | with no effect
H159E | with no effect
H159K | with no effect
H159A | with no effect
D162K | with no effect
D162E | with no effect
D162A | with no effect

Variant | effect of a mutation on the interaction
K150A | with no effect
K150E | with no effect
I147A | with no effect
I147E | with no effect
I147K | with no effect
R129K | with no effect
R129E | with no effect
R129A | with no effect
R138E | with no effect
R138K | with no effect
R138A | with no effect
W168K | with no effect
W168E | with no effect
W168A | with no effect
M136E | with no effect
M136A | with no effect
M136K | with no effect
R143A | with no effect
R143K | with no effect
R143E | with no effect
G178A | with no effect
G178E | disrupting interaction strength
G178K | with no effect

Variant | effect of a mutation on the interaction
G178R | disrupting interaction strength
Q157E | with no effect
Q157K | with no effect
Q157A | with no effect
Y161E | with no effect
Y161A | with no effect
Y161K | with no effect
E132K | with no effect
E132A | with no effect
K163E | with no effect
K163A | with no effect
M125A | with no effect
M125K | with no effect
M125E | with no effect
D139K | with no effect
D139A | with no effect
D139E | with no effect
P118A | with no effect
P118E | with no effect
P118K | with no effect
F121K | with no effect
F121A | with no effect
F121E | with no effect

Variant | effect of a mutation on the interaction
G116K | with no effect
V124K | disrupting interaction strength
V124A | with no effect
V124E | with no effect
G175K | with no effect
G175E | with no effect
G175A | with no effect
T179A | with no effect
T179E | with no effect
Y131A | with no effect
Y131E | with no effect
Y131K | with no effect
S144K | with no effect
S144E | with no effect
S144A | with no effect
L152E | with no effect
L152A | with no effect
L152K | with no effect
V160A | with no effect
V160K | with no effect
V160E | with no effect
A130K | disrupting interaction strength
A130E | with no effect

Variant | effect of a mutation on the interaction
N165K | with no effect
N165E | with no effect
N165A | with no effect
Q151A | with no effect
Q151K | with no effect
Q151E | with no effect
R119K | with no effect
R119A | with no effect
R119E | with no effect
L177E | with no effect
L177A | with no effect
L177K | with no effect
I164E | with no effect
I164K | with no effect
I164A | with no effect
A126K | with no effect
A126E | with no effect
S172K | with no effect
S172A | with no effect
S172E | with no effect
S123K | with no effect
S123E | with no effect
S123A | with no effect

Variant | effect of a mutation on the interaction
S123F | disrupting interaction strength
G166K | with no effect
G166A | with no effect
G166E | with no effect
S171K | with no effect
S171A | with no effect
S171E | with no effect
L120K | with no effect
L120E | with no effect
L120A | with no effect
T133E | with no effect
T133A | with no effect
T133K | with no effect
T133I | disrupting interaction strength
Q148E | with no effect
Q148K | with no effect
Q148A | with no effect
Y137A | with no effect
Y137E | with no effect
Y137K | with no effect
V167E | with no effect
V167A | with no effect
V167K | with no effect

Variant | effect of a mutation on the interaction
L142A | with no effect
L142K | with no effect
L142E | with no effect
V127A | with no effect
V127K | with no effect
V127E | with no effect
N176E | with no effect
N176K | with no effect
N176A | with no effect
H128K | with no effect
H128A | with no effect
H128E | with no effect
S117E | with no effect
S117A | with no effect
S117K | with no effect
P156A | with no effect
P156E | with no effect
P156K | with no effect
T122E | with no effect
T122A | with no effect
T122K | with no effect
E158K | with no effect
E158A | with no effect
